Results: article doi:10.1101/2022.06.15.496229

Experiments:
[1] = molecular target: DHR2 domain of human DOCK10 (DOCK10^DHR2, residues 1695-2151) (human) (UniProt Q96BY6); test: SEC-MALS
[2] = molecular target: DHR2 domain of human DOCK10 (DOCK10^DHR2, residues 1695-2151) (human) (UniProt Q96BY6); test: ITC

DHR2 domain of human DOCK10 (DOCK10^DHR2, residues 1695-2151) (human), sequence (Q96BY6 1695-2151): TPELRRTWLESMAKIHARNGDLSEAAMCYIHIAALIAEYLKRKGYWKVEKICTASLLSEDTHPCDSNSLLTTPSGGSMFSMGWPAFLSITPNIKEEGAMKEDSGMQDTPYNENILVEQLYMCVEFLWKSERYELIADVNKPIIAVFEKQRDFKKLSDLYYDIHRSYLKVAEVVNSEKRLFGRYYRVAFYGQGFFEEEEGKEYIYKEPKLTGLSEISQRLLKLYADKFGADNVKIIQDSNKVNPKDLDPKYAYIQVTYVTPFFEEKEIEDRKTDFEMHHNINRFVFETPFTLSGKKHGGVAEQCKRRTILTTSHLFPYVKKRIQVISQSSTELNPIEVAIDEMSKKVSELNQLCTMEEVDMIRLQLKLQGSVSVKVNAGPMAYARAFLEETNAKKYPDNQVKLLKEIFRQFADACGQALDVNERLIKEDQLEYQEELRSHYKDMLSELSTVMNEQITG

Row | stoichiometry N (DOCK10^DHR2 per RAC1) [1] | dH [2] [kcal/mol] | Substance
1 | 2 |  | RAC1 (residues 1-192) (from UniProt P63000 1-192) (natural protein)
2 |  | -2.05 | RAC3 (residues 1-192) (from UniProt P60763 1-192) (natural protein)
